Results on three substances are retold here after paper PMC3014985.

Common to all, as to assay: SEC
Assay [1] deals with 6His-TOSV NP (Toscana virus nucleoprotein with N-terminal hexahistidine tag), refolded (Toscana virus (strain AR2005)) (UniProt P21701).
The target in assay [2] is RVFV NP (Rift Valley fever virus nucleoprotein after removal of the TRX-6His tag) (Rift Valley fever virus (strain Smithburn)) (UniProt P21700).
Assay [3] concerns the target TOSV NP (Toscana virus nucleoprotein after removal of the TRX-6His tag) (Toscana virus (strain AR2005)) (UniProt P21701).
For assay [4] the target is unchanged. This is another data set of the same source.

As a reminder, the stoichiometry N is the number of molecules, sites or subunits per partner or assembly.

Read-outs that look alike come from different tables or passages of the source.

“6His-TOSV NP (Toscana virus nucleoprotein with N-terminal hexahistidine tag), refolded (from UniProt P21701 1-253) (natural protein)”: in assay [1], the stoichiometry N was 3.
In assay [2], “RVFV NP (Rift Valley fever virus nucleoprotein after removal of the TRX-6His tag) (from UniProt P21700 1-245) (natural protein)” returned a stoichiometry N of 3.
In the case of “TOSV NP (Toscana virus nucleoprotein after removal of the TRX-6His tag) (from UniProt P21701 1-253) (natural protein)”, the values for the stoichiometry N in assay [3] and in assay [4] were 3 and 6, respectively.
